ChEMBL document CHEMBL1153321, “Approaches to the simultaneous inactivation of metallo- and serine-beta-lactamases” (Bioorg Med Chem Lett, 2009)

Columns and labels:
Conditions in all cases: Enterobacter cloacae
[1] = substrate: CC(=O)OCC1=C(C(=O)O)N2C(=O)[C@@H](N)[C@H]2SC1
[2] = substrate: CC(=O)OCC1=C(C(=O)O)N2C(=O)[C@@H](N(O)C(=O)Cc3ccccc3)[C@H]2SC1
[3] = substrate: CC1=C(C(=O)O)N2C(=O)/C(=N/O)[C@H]2S(=O)(=O)C1
[4] = substrate: CC(=O)OCC1=C(C(=O)O)N2C(=O)/C(=N/O)[C@H]2S(=O)(=O)C1
[5] = substrate: CC(=O)OCC1=C(C(=O)O)N2C(=O)[C@@H](N(O)C=O)[C@H]2SC1
[6] = substrate: CC(=O)OCC1=C(C(=O)O)N2C(=O)[C@@H](NC(=O)Cc3cccs3)[C@H]2SC1
[7] = substrate: CC(=O)OCC1=C(C(=O)O)N2C(=O)[C@@H](NO)[C@H]2SC1
[8] = substrate: CC(=O)OCC1=C(C(=O)O)N2C(=O)[C@@H](NC=O)[C@H]2SC1
[9] = substrate: CC(=O)OCC1=C(C(=O)O)N2C(=O)/C(=N/O)[C@H]2SC1

B1: Beta-lactamase (Enterobacter cloacae), P05364 (protein)
chain: MMRKSLCCALLLGISCSALATPVSEKQLAEVVANTITPLMKAQSVPGMAVAVIYQGKPHYYTFGKADIAANKPVTPQTLFELGSISKTFTGVLGGDAIARGEISLDDAVTRYWPQLTGKQWQGIRMLDLATYTAGGLPLQVPDEVTDNASLLRFYQNWQPQWKPGTTRLYANASIGLFGALAVKPSGMPYEQAMTTRVLKPLKLDHTWINVPKAEEAHYAWGYRDGKAVRVSPGMLDAQAYGVKTNVQDMANWVMANMAPENVADASLKQGIALAQSRYWRIGSMYQGLGWEMLNWPVEANTVVEGSDSKVALAPLPVAEVNPPAPPVKASWVHKTGSTGGFGSYVAFIPEKQIGIVMLANTSYPNPARVEAAYHILEALQ
Km [1]: 290 µM | kcat [1]: 0.46 s⁻¹ | Km [2]: 5 µM | kcat [2]: 0.49 s⁻¹ | Km [3]: 4.5 µM | kcat [3]: 0.54 s⁻¹ | Km [4]: > 200 µM | Km [5]: 240 µM | kcat [5]: 0.32 s⁻¹ | Km [6]: 15.4 µM | kcat [6]: 690 s⁻¹ | Km [7]: 1450 µM | kcat [7]: 1.6 s⁻¹ | Km [8]: 315 µM | kcat [8]: 1180 s⁻¹ | Km [9]: 366 µM | kcat [9]: 2.56 s⁻¹
